Experimental data from publication PMC4191604 (Journal of Medicinal Chemistry, 2014).

Legend:
Experiment in all cases: SPR
GBP1 mutant D184A = target: T1, GBP1 mutant D184A (human, UniProt P32455 1-592, D184A)
T1 sequence (looked up): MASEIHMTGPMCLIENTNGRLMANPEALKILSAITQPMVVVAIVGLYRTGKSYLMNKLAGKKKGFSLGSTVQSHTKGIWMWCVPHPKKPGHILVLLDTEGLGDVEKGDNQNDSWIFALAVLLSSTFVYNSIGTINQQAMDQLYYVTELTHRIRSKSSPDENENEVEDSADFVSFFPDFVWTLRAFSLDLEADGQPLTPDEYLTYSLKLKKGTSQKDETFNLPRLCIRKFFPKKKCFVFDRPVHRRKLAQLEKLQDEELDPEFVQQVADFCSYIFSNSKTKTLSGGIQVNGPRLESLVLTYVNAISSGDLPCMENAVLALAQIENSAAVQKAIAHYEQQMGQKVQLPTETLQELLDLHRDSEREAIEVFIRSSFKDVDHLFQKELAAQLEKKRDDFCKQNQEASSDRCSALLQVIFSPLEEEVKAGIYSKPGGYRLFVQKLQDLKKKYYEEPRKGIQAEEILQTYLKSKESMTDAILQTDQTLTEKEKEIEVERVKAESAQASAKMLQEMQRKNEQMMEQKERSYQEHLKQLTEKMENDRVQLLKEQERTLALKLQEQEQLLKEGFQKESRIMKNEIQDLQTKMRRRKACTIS

[1] = target: T2, GBP1 GTPase (human GBP1, recombinant wild type) (human, UniProt P32455 1-592)
T2 sequence (looked up): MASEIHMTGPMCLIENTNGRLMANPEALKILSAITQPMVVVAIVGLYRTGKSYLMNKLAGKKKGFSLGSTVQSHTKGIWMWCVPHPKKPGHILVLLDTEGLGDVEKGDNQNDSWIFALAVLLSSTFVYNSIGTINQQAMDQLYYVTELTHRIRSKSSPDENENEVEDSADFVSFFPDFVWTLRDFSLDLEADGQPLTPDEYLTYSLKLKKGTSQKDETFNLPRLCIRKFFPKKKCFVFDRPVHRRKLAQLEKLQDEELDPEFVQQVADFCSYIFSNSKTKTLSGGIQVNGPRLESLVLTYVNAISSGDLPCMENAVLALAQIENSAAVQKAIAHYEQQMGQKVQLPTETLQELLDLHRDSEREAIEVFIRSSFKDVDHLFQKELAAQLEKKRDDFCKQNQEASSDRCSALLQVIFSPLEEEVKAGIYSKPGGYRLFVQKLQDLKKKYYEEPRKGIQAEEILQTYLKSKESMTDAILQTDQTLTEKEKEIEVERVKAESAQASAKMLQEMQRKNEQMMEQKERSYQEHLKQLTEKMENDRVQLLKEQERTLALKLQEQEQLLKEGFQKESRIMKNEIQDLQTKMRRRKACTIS

GBP1 mutant Q72A = target: T3, GBP1 mutant Q72A (human, UniProt P32455 1-592, Q72A)
T3 sequence (looked up): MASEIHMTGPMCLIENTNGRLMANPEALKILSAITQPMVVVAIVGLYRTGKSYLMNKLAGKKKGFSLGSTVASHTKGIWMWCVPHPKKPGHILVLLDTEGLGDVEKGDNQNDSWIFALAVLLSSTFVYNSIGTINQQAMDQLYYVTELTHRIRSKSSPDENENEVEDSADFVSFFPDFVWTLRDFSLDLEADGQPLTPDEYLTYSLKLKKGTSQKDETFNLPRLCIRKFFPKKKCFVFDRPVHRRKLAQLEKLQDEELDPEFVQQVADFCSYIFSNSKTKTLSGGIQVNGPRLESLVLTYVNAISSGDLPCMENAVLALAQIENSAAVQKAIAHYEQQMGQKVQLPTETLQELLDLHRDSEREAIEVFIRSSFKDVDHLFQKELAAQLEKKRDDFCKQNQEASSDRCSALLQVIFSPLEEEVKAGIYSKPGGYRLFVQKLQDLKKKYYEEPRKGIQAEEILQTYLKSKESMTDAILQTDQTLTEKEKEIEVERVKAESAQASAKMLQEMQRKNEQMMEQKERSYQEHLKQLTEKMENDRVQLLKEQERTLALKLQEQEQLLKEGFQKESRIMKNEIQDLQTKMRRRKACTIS

GBP1 mutant R48A = target: T4, GBP1 mutant R48A (human, UniProt P32455 1-592, R48A)
T4 sequence (looked up): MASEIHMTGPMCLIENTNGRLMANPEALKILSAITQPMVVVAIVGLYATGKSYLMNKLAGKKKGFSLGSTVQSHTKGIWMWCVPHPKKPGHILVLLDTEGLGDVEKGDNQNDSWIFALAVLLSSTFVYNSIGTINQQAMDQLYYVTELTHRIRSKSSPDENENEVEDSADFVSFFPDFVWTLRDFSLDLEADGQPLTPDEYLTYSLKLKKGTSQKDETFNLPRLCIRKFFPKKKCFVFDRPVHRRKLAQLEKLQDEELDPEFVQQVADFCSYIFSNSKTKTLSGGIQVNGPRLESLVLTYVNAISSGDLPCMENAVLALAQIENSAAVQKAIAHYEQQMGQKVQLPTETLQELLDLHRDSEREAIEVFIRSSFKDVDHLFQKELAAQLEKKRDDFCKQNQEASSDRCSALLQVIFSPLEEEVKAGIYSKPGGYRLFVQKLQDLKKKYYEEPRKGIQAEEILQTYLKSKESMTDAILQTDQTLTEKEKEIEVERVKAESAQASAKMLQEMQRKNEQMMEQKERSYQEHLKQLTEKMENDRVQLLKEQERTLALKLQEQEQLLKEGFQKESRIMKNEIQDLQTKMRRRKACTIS

B1: PIM1 (recombinant) (enzyme)
chain: not shown
- Kd (GBP1 mutant D184A): 80 ± 5 nM
- Kd [1]: 67 ± 20 nM
- Kd (GBP1 mutant Q72A): 62 ± 2 nM
- Kd (GBP1 mutant R48A): 290 ± 21 nM
